Measurements: the supplement of paper PMC9170038

System: MS2 coat protein
Experiment: apparent KD of MS2 coat protein; designed switch direction (-1 OFF switch, 1 ON switch): 1; higher = weaker reporter binding
Summary of the method: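 Apparent KD, taken as the median over clusters for each design, was obtained by curve-fitting normalised cluster fluorescence. Designed RNA switches had been transcribed on Illumina chips by stalled E. coli RNA polymerase and titrated with SNAP-549-labelled MS2 coat protein, doubling from 0.7 or 1.5 nM to 3 µM.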

[1] = input ligand: microRNA oligo, concentration not stated
[2] = Eterna round: R95, input ligand: FMN 200 uM
[3] = Eterna round: R95, input ligand: microRNA oligo, concentration not stated
[4] = Eterna round: R95, input ligand: none

Sequence | apparent KD of MS2 coat protein (input ligand: FMN 200 uM) | apparent KD of MS2 coat protein [1] | apparent KD of MS2 coat protein (input ligand: none) | apparent KD of MS2 coat protein [2] | apparent KD of MS2 coat protein [3] | apparent KD of MS2 coat protein [4]
AUUAUUUAUGCAGGAUAUGAUUAACAUGAGGAUCACCCAUGUGGUGUUGUGAGUAAGGAGAGUGAUCAGAAGGGCAUUUUUUUA [JMF's solution 56] (Eterna round: R96, puzzle: Same State NG 2) | 476 nM | 410 nM | 302 nM | – | – | –
GGUAUCGGCACAGGAUAUGCUAUCCUUUGGGUAGCAGAAGGGUGGACAUGAGGAUCACCCAUGUGGGUGCCAGGGCGUGAGCCC [JL SSNG1 1.85] (Eterna round: R96, puzzle: Same State NG 1) | 912 nM | 363 nM | 907 nM | – | – | –
AAACUGGAGGACAAGGAUAUGUGCUCUACGACAUGAGGAUCACCCAUGUGAGACGUAGUAGUGAAACAGAAGGUGUCCUAUUGUA [Tiarri] (Eterna round: R96, puzzle: Same State 2) | – | 14.2 nM | – | – | – | –
GUUAUACAUGAGGAUCACCCAUGUCAAUGUAGUCGAGGAUAUGGGUUGCUAUGAGGCGUACUAGAAGGCGAGGAGU [JL-ss1-3.17 ViennaUCT mod] (puzzle: Same State 1) | – | – | – | 297 nM | 98.8 nM | 265 nM
UCUUGGUUUUUGCUCGUUUUUUGUGUUGAACAUGAGGAUCACCCAUGUAUUGUACGGUCCGAUUUAAUAGUGGUCCG [JMF 19] (puzzle: Sensor for hsa-mir-208a) | – | – | – | 24.4 nM | 14.8 nM | 27 nM
GUGGAGGGUUGAGGAUAUUGAUUGCAUAUGUUUAACAUGAGGAUCACCCAUGUGGGUUGCGGUUUCGAGAAGGUAGGUUGCUGG [salish99_SSNG2_r04_042] (Eterna round: R96, puzzle: Same State NG 2) | 80.8 nM | 59.4 nM | 72.2 nM | – | – | –
CGUCCGGCCUGUGCUGGCCGGUUGCUUGUACAUGAGGAUCACCCAUGUUCUUGUGCAGGCUUUUUGCUCGUCUUGUG [salish99_mir208a_018] (puzzle: Sensor for hsa-mir-208a) | – | – | – | 212 nM | 25 nM | 265 nM
GGUCCAGCCUGAGCUGGACCACAGCAUGUACAUGAGGAUCACCCAUGUCAUGUACAAGCUUUUUGUUUAAAAUAAAA [Sensorship 13 - Jieux - Sensor for hsa-mir-208a] (puzzle: Sensor for hsa-mir-208a) | – | – | – | 261 nM | 30.5 nM | 209 nM
UUGUUUUGAAAUUAACAUGAGGAUCACCCAUGUCUUGACACAGAGGAUAUACAUGAAUGUAGGUAGUAGAAGGCUGUUUAGUGU [JR_SSNG3_Sub098] (Eterna round: R96, puzzle: Same State NG 3) | – | 57.2 nM | – | – | – | –
UUGGUGUAGAUACAGGAUAUGUUGCUUGUUACAUGAGGAUCACCCAUGUAUCUAUGAGAUUAAAUGCAGAAGGGUGCACAUCACU [salish99_ss2_r3_091] (puzzle: Same State 2) | – | – | – | 52.9 nM | 124 nM | 169 nM
GUAGCAUGCAGGCAGGAUAUUCAUAUUAAAACAUGAGGAUCACCCAUGUAGGCCAAAAGGCCUUGGGAGAAGGGCCACAUGCUAC [Xeonanis - 19] (Eterna round: R96, puzzle: Same State 2) | 35.7 nM | 337 nM | 424 nM | – | – | –
ACAAGCUUUUCUGCAUUGAAAGGUUGAUAACAUGAGGAUCACCCAUGUUUAUAUGAAAAUAAUGCUCCUCGUCUUAU [JR_SHM208A_Sub094] (puzzle: Sensor for hsa-mir-208a) | – | – | – | 55.4 nM | 11.4 nM | 46.9 nM
GCAGAACAUGAGGAUCACCCAUGUCUCUAAUAUUGAGGAUAUGGGCACGGUAUAUCCGAACCAGAAGGCGAACUGC [SS1 Teenbexe 16] (puzzle: Same State 1) | – | – | – | 420 nM | 322 nM | 431 nM
UGACACACGGCAGGAUAUCGAUUCCAAAGGAAUCGAGAAGGGCCUCAUGUCGUGGAAACGUGACAUGAGGAUCACCCAUGUCGC [Omei SS(NG)1 Cv16] (Eterna round: R96, puzzle: Same State NG 1) | 65 nM | 3.72 nM | 64.2 nM | – | – | –
UUUAUAUUCAGAGGAUAUUAAAGUAGUAUAACAUAAGAAGGCUGUUUGUUUUGUAAAGUAAUUCUACAUGAGGAUCACCCAUGU [JR_SSNG1_Sub085] (Eterna round: R96, puzzle: Same State NG 1) | – | 15.8 nM | – | – | – | –
AAGGGAUGAGCGUAGGAUAUAGGAGAAGUGACAUGAGGAUCACCCAUGUAAAAGGAGGGAUGAGACUAGAAGGACGAGGUAGGAG [JR_SS2_Sub059] (Eterna round: R96, puzzle: Same State 2) | 82.7 nM | 55.4 nM | 78.3 nM | – | – | –

Sequence | apparent KD of MS2 coat protein (input ligand: FMN 200 uM) | apparent KD of MS2 coat protein [1] | apparent KD of MS2 coat protein (input ligand: none) | apparent KD of MS2 coat protein [2] | apparent KD of MS2 coat protein [3] | apparent KD of MS2 coat protein [4]
GGGCCAGCUUUUGCUGGGCCUUCGCUUGCACAUGAGGAUCACCCAUGUCGUGUACACGCUUCCUGCCCGUCUUUUUU [Photon Torp-18] (puzzle: Sensor for hsa-mir-208a) | – | – | – | 21.2 nM | 13.6 nM | 21.8 nM
UUUGGGUGGCUGGAGGAUAUCCUUGUUGUUACAUGAGGAUCACCCAUGUGCCGCGCGGUUCGCGAGGAGAAGGCUGGCGGCCGUU (puzzle: Same State 2) | – | – | – | – | 169 nM | –
GGCCUCUGUCAAGGAUAUGCUACCGUUUCGGUAGCAGAAGGUGAUCACAUGAGGAUCACCCAUGUUUAGGCCCUCUGGCCCGCC (Eterna round: R96, puzzle: Same State NG 1) | 114 nM | 330 nM | 138 nM | – | – | –
UGUCCAGCCUGAGCUGGACAAAAGCAUGUACAUGAGGAUCACCCAUGUUCAUGUACAAGCUUUUUGCUCGUCUUAGU [salish99_208a_r3_065] (puzzle: Sensor for hsa-mir-208a) | – | – | – | 489 nM | 13.8 nM | 619 nM
ACAUGAGAGUGAGGAUAUAUAGUACCUACAUGUGACAUGAGGAUCACCCAUGUGGUAAGUAUGACAUAGAAGGCACAGAUAUGU [Equivalance 100 - Jieux - Same State NG 2] (Eterna round: R96, puzzle: Same State NG 2) | 37.9 nM | 71.4 nM | 84.2 nM | – | – | –
AGCUAUUAAUCAGGAUAUGGUCACAUGAGGAUCACCCAUGUAACGAUGAUAUAAUGUGGUCAAAACUAGAAGGGAUUGCUAACA [SameState NG2 #65] (Eterna round: R96, puzzle: Same State NG 2) | 341 nM | 216 nM | 290 nM | – | – | –
GACAGGCAGGCUUUUUCCUCGUAGUGUAAACAUGAGGAUCACCCAUGUGCUCGCCCUGGAUCUUUGGAUCGCAGGAA [Tibeon] (puzzle: Sensor for hsa-mir-208a) | – | – | – | 353 nM | 124 nM | 407 nM
GAGAGACGAUUAGGAUAUACGGUGAUAAUGAUAGUAGAAGGAAUUGACAUGAGGAUCACCCAUGUAGGAAUAAUCCAGAGAGAG [Parity 26 - Jieux - Same State NG 1] (Eterna round: R96, puzzle: Same State NG 1) | 81.2 nM | 93.2 nM | 86.8 nM | – | – | –
GCGAGCGUACUUGCUACAUGAGGAUCACCCAUGUCUGUUGGACAGGAUAUGGUACCGUUUCGGUACCAGAAGGGUUCAUCAUGU [JL SSNG3 3.74] (Eterna round: R96, puzzle: Same State NG 3) | 439 nM | 74 nM | 262 nM | – | – | –
UGUUGGUUUUUGCUCGUUUUUUGUGUUGAACAUGAGGAUCACCCAUGUAUUGUACAGUCCAGUUUGGUAAUGGUGCG [JR_SHM208A_Sub046] (puzzle: Sensor for hsa-mir-208a) | – | – | – | 41.6 nM | 31.4 nM | 57.5 nM
UCGUCCUCGUGCUAGGAUAUCCAUCGUAAAACAUGAGGAUCACCCAUGUAGAAAUGCGCCUACGAGGAGAAGGAGCGAUGUGGAU [Velemageer] (Eterna round: R96, puzzle: Same State 2) | – | 14 nM | – | – | – | –
UGGCUGGUGCUAGGAUAUGCAUGAGGCAUCCUCGUAGAAGGAGCACGACAUGAGGAUCACCCAUGUAGCCGUCCGUAGACGGCU [salish99_SSNG1_r04_010] (Eterna round: R96, puzzle: Same State NG 1) | 673 nM | 348 nM | 1060 nM | – | – | –
CCGAUUGAUGGAGGAUAUGGAGCCUUAUUGGCUCCAGAAGGCUAAUAACAUGAGGAUCACCCAUGUCGGCGGUCUAAUGACCGA [Eli NG1ss - 54] (Eterna round: R96, puzzle: Same State NG 1) | 36.1 nM | 57.5 nM | 69.1 nM | – | – | –
GUUAUUUAUGCAGGAUAUGAUUAACAUGAGGAUCACCCAUGUGGUGUUGUGAGUAAGGAGAGUGAUCAGAAGGGCAUUUUUUUU [JMF's solution 77] (Eterna round: R96, puzzle: Same State NG 2) | 626 nM | 298 nM | 565 nM | – | – | –
AGUCUACGGUGACGUAGACAGUAGUGCGUACAUGAGGAUCACCCAUGUCAUGUAAGAGUUACUUGUUCGUCUUGAAC [SENSOR #3] (puzzle: Sensor for hsa-mir-208a) | – | – | – | 20.4 nM | 16.9 nM | 20.2 nM
UGUUGUAUUACAGGAUAUCUAUUAUUUUUGUUUAGAGAAGGGUAUUCACAUGAGGAUCACCCAUGUAUAUACGAGGAAGUUGUG [JMF's solution 24] (Eterna round: R96, puzzle: Same State NG 1) | – | 37.6 nM | – | – | – | –
